± gives the uncertainty stated by the source.
B1: POU domain, class 5, transcription factor 1, residues 134 to 212; numbered along this chain, Q01860 (parent)
chain: EESQDIKALQKELEQFAKLLKQKRITLGYTQADVGLTLGVLFGKVFSQTTICRFEALQLSFKNMCKLRPLLQKWVEEAD

Variants of: B1
Assay: abundance fitness (aPCA) (normalised: wild type 0, dead -1); higher = more abundant; growth selection in yeast, the domain comes from the species named
Conditions: Homo sapiens

Variant | abundance fitness
EESQDIKALQKELEQFAKLLKQKRITLHYTQADVGLTLGVLFGKVFSQTTICRFEALQLSFKNMCKLRPLLQKWVEEAD [G28H] | 0.386 ± 0.21
EESQDIKALQKELEQFAKLLKQKRITLVYTQADVGLTLGVLFGKVFSQTTICRFEALQLSFKNMCKLRPLLQKWVEEAD [G28V] | -0.787 ± 0.19
EESQDIKALQKELEQFAKLLKQKRITLRYTQADVGLTLGVLFGKVFSQTTICRFEALQLSFKNMCKLRPLLQKWVEEAD [G28R] | -0.555 ± 0.13
EESQDIKALQKELEQFAKLLKQKRITLTYTQADVGLTLGVLFGKVFSQTTICRFEALQLSFKNMCKLRPLLQKWVEEAD [G28T] | -0.738 ± 0.37
EESQDIKALQKELEQFAKLLKQKRITLWYTQADVGLTLGVLFGKVFSQTTICRFEALQLSFKNMCKLRPLLQKWVEEAD [G28W] | -0.813 ± 0.33
EESQDIKALQKELEQFAKLLKQKRITLLYTQADVGLTLGVLFGKVFSQTTICRFEALQLSFKNMCKLRPLLQKWVEEAD [G28L] | -0.76 ± 0.22
EESQDIKALQKELEQFAKLLKQKRITLNYTQADVGLTLGVLFGKVFSQTTICRFEALQLSFKNMCKLRPLLQKWVEEAD [G28N] | -0.34 ± 0.42
EESQDIKALQKELEQFAKLLKQKRITLAYTQADVGLTLGVLFGKVFSQTTICRFEALQLSFKNMCKLRPLLQKWVEEAD [G28A] | -1.06 ± 0.3
EESQDIKALQKELEQFAKLLKQKRITLKYTQADVGLTLGVLFGKVFSQTTICRFEALQLSFKNMCKLRPLLQKWVEEAD [G28K] | -0.569 ± 0.34
EESQDIKALQKELEQFAKLLKQKRITLMYTQADVGLTLGVLFGKVFSQTTICRFEALQLSFKNMCKLRPLLQKWVEEAD [G28M] | -0.465 ± 0.24
EESQDIKALQKELEQFAKLLKQKRITLQYTQADVGLTLGVLFGKVFSQTTICRFEALQLSFKNMCKLRPLLQKWVEEAD [G28Q] | -0.389 ± 0.2
EESQDIKALQKELEQFAKLLKQKRITLSYTQADVGLTLGVLFGKVFSQTTICRFEALQLSFKNMCKLRPLLQKWVEEAD [G28S] | -0.839 ± 0.32
EESQDIKALQKELEQFAKLLKQKRITLGYTAADVGLTLGVLFGKVFSQTTICRFEALQLSFKNMCKLRPLLQKWVEEAD [Q31A] | -0.103 ± 0.11
EESQDIKALQKELEQFAKLLKQKRITLGYTDADVGLTLGVLFGKVFSQTTICRFEALQLSFKNMCKLRPLLQKWVEEAD [Q31D] | -0.126 ± 0.33
EESQDIKALQKELEQFAKLLKQKRITLGYTFADVGLTLGVLFGKVFSQTTICRFEALQLSFKNMCKLRPLLQKWVEEAD [Q31F] | -0.009 ± 0.29
EESQDIKALQKELEQFAKLLKQKRITLGYTWADVGLTLGVLFGKVFSQTTICRFEALQLSFKNMCKLRPLLQKWVEEAD [Q31W] | 0.078 ± 0.12
EESQDIKALQKELEQFAKLLKQKRITLGYTYADVGLTLGVLFGKVFSQTTICRFEALQLSFKNMCKLRPLLQKWVEEAD [Q31Y] | 0.323 ± 0.27
EESQDIKALQKELEQFAKLLKQKRITLGYTKADVGLTLGVLFGKVFSQTTICRFEALQLSFKNMCKLRPLLQKWVEEAD [Q31K] | -0.557 ± 0.34
EESQDIKALQKELEQFAKLLKQKRITLGYTHADVGLTLGVLFGKVFSQTTICRFEALQLSFKNMCKLRPLLQKWVEEAD [Q31H] | -0.108 ± 0.37
EESQDIKALQKELEQFAKLLKQKRITLGYTLADVGLTLGVLFGKVFSQTTICRFEALQLSFKNMCKLRPLLQKWVEEAD [Q31L] | -0.093 ± 0.2
EESQDIKALQKELEQFAKLLKQKRITLGYTEADVGLTLGVLFGKVFSQTTICRFEALQLSFKNMCKLRPLLQKWVEEAD [Q31E] | 0.276 ± 0.1
EESQDIKALQKELEQFAKLLKQKRITLGYTCADVGLTLGVLFGKVFSQTTICRFEALQLSFKNMCKLRPLLQKWVEEAD [Q31C] | 0.266 ± 0.18
EESQDIKALQKELEQFAKLLKQKRITLGYTGADVGLTLGVLFGKVFSQTTICRFEALQLSFKNMCKLRPLLQKWVEEAD [Q31G] | -0.402 ± 0.16

Variant | abundance fitness
EESQDIKALQKELEQFAKLLKQKRITLGYTVADVGLTLGVLFGKVFSQTTICRFEALQLSFKNMCKLRPLLQKWVEEAD [Q31V] | -0.679 ± 0.21
EESQDIKALQKELEQFAKLLKQKRITLGYTPADVGLTLGVLFGKVFSQTTICRFEALQLSFKNMCKLRPLLQKWVEEAD [Q31P] | 0.133 ± 0.14
EESQDIKALQKELEQFAKLLKQKRITLGYTRADVGLTLGVLFGKVFSQTTICRFEALQLSFKNMCKLRPLLQKWVEEAD [Q31R] | -0.469 ± 0.14
EESQDIKALQKELEQFAKLLKQKRITLGYAQADVGLTLGVLFGKVFSQTTICRFEALQLSFKNMCKLRPLLQKWVEEAD [T30A] | -0.667 ± 0.18
EESQDIKALQKELEQFAKLLKQKRITLGYRQADVGLTLGVLFGKVFSQTTICRFEALQLSFKNMCKLRPLLQKWVEEAD [T30R] | -0.249 ± 0.078
EESQDIKALQKELEQFAKLLKQKRITLGYHQADVGLTLGVLFGKVFSQTTICRFEALQLSFKNMCKLRPLLQKWVEEAD [T30H] | -0.437 ± 0.44
EESQDIKALQKELEQFAKLLKQKRITLGYEQADVGLTLGVLFGKVFSQTTICRFEALQLSFKNMCKLRPLLQKWVEEAD [T30E] | -1.06 ± 0.48
EESQDIKALQKELEQFAKLLKQKRITLGYLQADVGLTLGVLFGKVFSQTTICRFEALQLSFKNMCKLRPLLQKWVEEAD [T30L] | -0.853 ± 0.27
EESQDIKALQKELEQFAKLLKQKRITLGYVQADVGLTLGVLFGKVFSQTTICRFEALQLSFKNMCKLRPLLQKWVEEAD [T30V] | -0.392 ± 0.12
EESQDIKALQKELEQFAKLLKQKRITLGYQQADVGLTLGVLFGKVFSQTTICRFEALQLSFKNMCKLRPLLQKWVEEAD [T30Q] | -0.664 ± 0.3
EESQDIKALQKELEQFAKLLKQKRITLGYMQADVGLTLGVLFGKVFSQTTICRFEALQLSFKNMCKLRPLLQKWVEEAD [T30M] | -0.526 ± 0.25
EESQDIKALQKELEQFAKLLKQKRITLGYSQADVGLTLGVLFGKVFSQTTICRFEALQLSFKNMCKLRPLLQKWVEEAD [T30S] | 0.082 ± 0.085
EESQDIKALQKELEQFAKLLKQKRITLGPTQADVGLTLGVLFGKVFSQTTICRFEALQLSFKNMCKLRPLLQKWVEEAD [Y29P] | -0.407 ± 0.24
EESQDIKALQKELEQFAKLLKQKRITLGVTQADVGLTLGVLFGKVFSQTTICRFEALQLSFKNMCKLRPLLQKWVEEAD [Y29V] | -0.216 ± 0.089
EESQDIKALQKELEQFAKLLKQKRITLGSTQADVGLTLGVLFGKVFSQTTICRFEALQLSFKNMCKLRPLLQKWVEEAD [Y29S] | -0.717 ± 0.21
EESQDIKALQKELEQFAKLLKQKRITLGMTQADVGLTLGVLFGKVFSQTTICRFEALQLSFKNMCKLRPLLQKWVEEAD [Y29M] | 0.18 ± 0.12
EESQDIKALQKELEQFAKLLKQKRITLGFTQADVGLTLGVLFGKVFSQTTICRFEALQLSFKNMCKLRPLLQKWVEEAD [Y29F] | -0.761 ± 0.47
EESQDIKALQKELEQFAKLLKQKRITLGRTQADVGLTLGVLFGKVFSQTTICRFEALQLSFKNMCKLRPLLQKWVEEAD [Y29R] | -0.383 ± 0.096
EESQDIKALQKELEQFAKLLKQKRITLGITQADVGLTLGVLFGKVFSQTTICRFEALQLSFKNMCKLRPLLQKWVEEAD [Y29I] | -0.771 ± 0.47
EESQDIKALQKELEQFAKLLKQKRITLGQTQADVGLTLGVLFGKVFSQTTICRFEALQLSFKNMCKLRPLLQKWVEEAD [Y29Q] | 0.068 ± 0.19
EESQDIKALQKELEQFAKLLKQKRITLGDTQADVGLTLGVLFGKVFSQTTICRFEALQLSFKNMCKLRPLLQKWVEEAD [Y29D] | -0.422 ± 0.31
EESQDIKALQKELEQFAKLLKQKRITLGCTQADVGLTLGVLFGKVFSQTTICRFEALQLSFKNMCKLRPLLQKWVEEAD [Y29C] | -0.64 ± 0.32
EESQDIKALQKELEQFAKLLKQKRITLGLTQADVGLTLGVLFGKVFSQTTICRFEALQLSFKNMCKLRPLLQKWVEEAD [Y29L] | -0.055 ± 0.094

Variant | abundance fitness
EESQDIKALQKELEQFAKLLKQKRITLGGTQADVGLTLGVLFGKVFSQTTICRFEALQLSFKNMCKLRPLLQKWVEEAD [Y29G] | -0.56 ± 0.14
EESQDIKALQKELEQFAKLLKQKRITLGWTQADVGLTLGVLFGKVFSQTTICRFEALQLSFKNMCKLRPLLQKWVEEAD [Y29W] | -0.472 ± 0.18
EESQDIKALQKELEQFAKLLKQKRITLGHTQADVGLTLGVLFGKVFSQTTICRFEALQLSFKNMCKLRPLLQKWVEEAD [Y29H] | 0.148 ± 0.21
EESQDIKALQKELEQFAKLLKQKRITLGATQADVGLTLGVLFGKVFSQTTICRFEALQLSFKNMCKLRPLLQKWVEEAD [Y29A] | -0.41 ± 0.13
EESQDIKALQKELEQFAKLLKQKRITLGYTQCDVGLTLGVLFGKVFSQTTICRFEALQLSFKNMCKLRPLLQKWVEEAD [A32C] | -0.229 ± 0.32
EESQDIKALQKELEQFAKLLKQKRITLGYTQTDVGLTLGVLFGKVFSQTTICRFEALQLSFKNMCKLRPLLQKWVEEAD [A32T] | -0.06 ± 0.21
EESQDIKALQKELEQFAKLLKQKRITLGYTQKDVGLTLGVLFGKVFSQTTICRFEALQLSFKNMCKLRPLLQKWVEEAD [A32K] | 0.232 ± 0.2
EESQDIKALQKELEQFAKLLKQKRITLGYTQEDVGLTLGVLFGKVFSQTTICRFEALQLSFKNMCKLRPLLQKWVEEAD [A32E] | -0.024 ± 0.15
EESQDIKALQKELEQFAKLLKQKRITLGYTQRDVGLTLGVLFGKVFSQTTICRFEALQLSFKNMCKLRPLLQKWVEEAD [A32R] | 0.066 ± 0.1
EESQDIKALQKELEQFAKLLKQKRITLGYTQNDVGLTLGVLFGKVFSQTTICRFEALQLSFKNMCKLRPLLQKWVEEAD [A32N] | -0.193 ± 0.33
EESQDIKALQKELEQFAKLLKQKRITLGYTQHDVGLTLGVLFGKVFSQTTICRFEALQLSFKNMCKLRPLLQKWVEEAD [A32H] | -0.487 ± 0.41
EESQDIKALQKELEQFAKLLKQKRITLGYTQLDVGLTLGVLFGKVFSQTTICRFEALQLSFKNMCKLRPLLQKWVEEAD [A32L] | -0.749 ± 0.27
EESQDIKALQKELEQFAKLLKQKRITLGYTQGDVGLTLGVLFGKVFSQTTICRFEALQLSFKNMCKLRPLLQKWVEEAD [A32G] | -0.235 ± 0.1
EESQDIKALQKELEQFAKLLKQKRITWGYTQADVGLTLGVLFGKVFSQTTICRFEALQLSFKNMCKLRPLLQKWVEEAD [L27W] | -0.185 ± 0.11
EESQDIKALQKELEQFAKLLKQKRITYGYTQADVGLTLGVLFGKVFSQTTICRFEALQLSFKNMCKLRPLLQKWVEEAD [L27Y] | -0.358 ± 0.4
EESQDIKALQKELEQFAKLLKQKRITNGYTQADVGLTLGVLFGKVFSQTTICRFEALQLSFKNMCKLRPLLQKWVEEAD [L27N] | -0.429 ± 0.36
EESQDIKALQKELEQFAKLLKQKRITQGYTQADVGLTLGVLFGKVFSQTTICRFEALQLSFKNMCKLRPLLQKWVEEAD [L27Q] | -0.602 ± 0.24
EESQDIKALQKELEQFAKLLKQKRITMGYTQADVGLTLGVLFGKVFSQTTICRFEALQLSFKNMCKLRPLLQKWVEEAD [L27M] | -0.188 ± 0.19
EESQDIKALQKELEQFAKLLKQKRITKGYTQADVGLTLGVLFGKVFSQTTICRFEALQLSFKNMCKLRPLLQKWVEEAD [L27K] | -0.31 ± 0.19
EESQDIKALQKELEQFAKLLKQKRITPGYTQADVGLTLGVLFGKVFSQTTICRFEALQLSFKNMCKLRPLLQKWVEEAD [L27P] | -0.274 ± 0.2
EESQDIKALQKELEQFAKLLKQKRITRGYTQADVGLTLGVLFGKVFSQTTICRFEALQLSFKNMCKLRPLLQKWVEEAD [L27R] | -0.345 ± 0.1
EESQDIKALQKELEQFAKLLKQKRITVGYTQADVGLTLGVLFGKVFSQTTICRFEALQLSFKNMCKLRPLLQKWVEEAD [L27V] | -0.588 ± 0.14
EESQDIKALQKELEQFAKLLKQKRITSGYTQADVGLTLGVLFGKVFSQTTICRFEALQLSFKNMCKLRPLLQKWVEEAD [L27S] | -0.724 ± 0.25
